In this data set the test system is TRMT10C (MRPP1, RG9MTD1) (Homo sapiens). As to the kind of experiment: EMSA. To be noted: apparent Kd; EMSA: 1 nM 5'-labelled pre-tRNA, 10 nM-1.2 uM protein, methylation/processing buffer (composition not in material) + 100 mM sucrose, 30 min at room …. Background: Mobility shift assays separate free from complexed probe on a gel.

Turning to (mt)pre-tRNAIle, the Kd was found to be 0.255 µM.

As for (mt)pre-tRNAHis, the Kd worked out at 0.203 µM.
